Substitutions are numbered along the chain they refer to. Like-named read-outs stand apart in the source and are kept apart here.
T1: recombinant protein His-fib-hTL1A (human)
T1 chain: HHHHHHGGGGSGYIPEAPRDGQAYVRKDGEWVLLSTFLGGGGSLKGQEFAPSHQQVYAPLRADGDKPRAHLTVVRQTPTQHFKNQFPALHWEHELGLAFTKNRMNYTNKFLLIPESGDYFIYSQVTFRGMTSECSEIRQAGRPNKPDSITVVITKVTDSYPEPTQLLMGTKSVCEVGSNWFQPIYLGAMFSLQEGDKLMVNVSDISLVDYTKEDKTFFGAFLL

T2: recombinant protein His-fib-mTL1A (mouse)
T2 construct: also called mouse TL1A
T2 chain: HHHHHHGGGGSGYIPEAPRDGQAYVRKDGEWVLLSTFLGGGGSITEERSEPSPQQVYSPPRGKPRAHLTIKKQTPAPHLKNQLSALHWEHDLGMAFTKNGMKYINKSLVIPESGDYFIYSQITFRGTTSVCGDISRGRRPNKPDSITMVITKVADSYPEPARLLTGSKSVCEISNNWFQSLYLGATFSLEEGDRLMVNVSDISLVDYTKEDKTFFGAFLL

T3: recombinant protein His-fib-mfTL1A (Macaca fascicularis)
T3 construct: also called monkey TL1A; Macaca fascicularis TL1A
T3 chain: T1 chain with F82L, I121V

T4: recombinant protein His-fib-rTL1A (rat)
T4 construct: also called rat TL1A
T4 chain: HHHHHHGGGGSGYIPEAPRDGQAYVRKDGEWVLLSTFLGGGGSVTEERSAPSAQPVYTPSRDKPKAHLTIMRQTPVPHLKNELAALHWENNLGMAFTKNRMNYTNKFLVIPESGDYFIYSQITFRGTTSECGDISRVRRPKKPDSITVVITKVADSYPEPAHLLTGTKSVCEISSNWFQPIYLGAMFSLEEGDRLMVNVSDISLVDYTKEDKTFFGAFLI

B1: anti-TL1A monoclonal antibody RVT-3101 (antibody, V domains shown)
VH: QVQLVQSGAEVKKPGASVKVSCKASGYDFTYYGISWVRQAPGQGLEWMGWISTYNGNTHYARMLQGRVTMTTDTSTRTAYMELRSLRSDDTAVYYCARENYYGSGAYRGGMDVWGQGTTVTVSS
VL: EIVLTQSPATLSLSPGERATLSCRASQSVSSYLAWYQQKPGQAPRLLIYDASNRATGIPARFSGSGSGTDFTLTISSLEPEDFAVYYCQQRSNWPWTFGQGTKVEIK
B2: mouse anti-TL1A monoclonal antibody S9H9 (antibody, V domains shown)
VH: QVQLKQSGAELVRPGTSVKISCKASGYAFTNYWLGWIKQRPGHGLEWIGDIHPGRGNIFYNEKFKGKATLTADKSSSTAYMQLSSLTSEDSAVYFCAEGYDTFDYWGQGTTLTVSA
VL: DIVMTQSHKFMSTSVGDRVSITCKASQDVSTAVAWYQQKPGQSPKLLIYSASYRYTGVPDRFTGSGSGTDFTFTISSVQAEDLAVYYCQQHYSTPWTFGGGTKLEMKR
B3: mouse anti-TL1A monoclonal antibody S7B11 (antibody, V domains shown)
VH: B2 VH with Q3K, K5Q, A9G, F59Y, A116S
VL: DIVMTQSPSYLAASPGETITINCRASKSISKYLAWYQEKPGKTNKLLIYSGSTLQSGIPSRFSGSGSGTDFTLTISSLEPEDFAMYYCQQHNEYPYTFGGGTKLEIKR
B4: anti-TL1A monoclonal antibody PRA023 (antibody, V domains shown)
VH: QVQLVQSGAEVKKPGASVKVSCKASGFDIQDTYMHWVKQRPGQGLEWMGRIDPASGHTKYDPKFQVRVTITRDTSTSTVYLELSSLRSEDTAVYYCARSGGLPDVWGQGTTVTVSS
VL: EIVLTQSPGTLSLSPGERATLSCRASSSVSYMYWYQQKPGQAPRPLIYATSNLASGIPDRFSGSGSGTDFTLTISRLEPEDFAVYYCQQWEGNPRTFGGGTKLEIK
B5: mouse anti-TL1A monoclonal antibody S4D3 (antibody, V domains shown)
VH: QVQLKESGSDLATPGASVKLSCKVSGYTFTKYDINWVRQRPEQGLEWIGWIFPGDGRTDYNEKFKGKATLTIDTSSSTAYMQLSRLTSEDSAVYFCARYGYALDYWGQGTSVTVSS
VL: DVVMTQTPLSLPVSLGDQASISCRSSQNIVHSNGDTYLEWFLQKPGQSPKLLIYKVSNRFSGVPDRFSGSGSGTDFTLKISRVEAEDLGVYYCFQGSHFPYTFGGGTKLEMKR

Assays:
[1] = molecular target: T1, recombinant protein His-fib-hTL1A; assay: cell-based or functional assay
[2] = molecular target: T1, recombinant protein His-fib-hTL1A; assay: cell-based or functional assay
[3] = molecular target: T1, recombinant protein His-fib-hTL1A; assay: cell-based or functional assay
[4] = molecular target: T1, recombinant protein His-fib-hTL1A; assay: cell-based or functional assay
[5] = molecular target: T1, recombinant protein His-fib-hTL1A; assay: cell-based or functional assay
[6] = molecular target: T1, recombinant protein His-fib-hTL1A; assay: SPR, Biacore T200; antibody captured by anti-human IgG (Fc), TL1A as analyte; 1:1 model
[7] = molecular target: T2, recombinant protein His-fib-mTL1A; assay: as above
[8] = molecular target: T3, recombinant protein His-fib-mfTL1A; assay: as above
[9] = molecular target: T1, recombinant protein His-fib-hTL1A; assay: as above
[10] = molecular target: T2, recombinant protein His-fib-mTL1A; assay: as above
[11] = molecular target: T4, recombinant protein His-fib-rTL1A; assay: as above
[12] = molecular target: T3, recombinant protein His-fib-mfTL1A; assay: as above
[13] = molecular target: T2, recombinant protein His-fib-mTL1A; assay: SPR, Biacore T200; antibody captured by anti-human IgG (Fc), TL1A as analyte
[14] = molecular target: T4, recombinant protein His-fib-rTL1A; assay: as above

Binder	IC50 of inhibition of caspase-3/7 activation in TL1A-stimulated TF-1 cells [1]	IC50 of inhibition of NF-kB activation in TL1A-stimulated 293T-hDR3-NF-kB-RE-luci cells [2]	IC50 of inhibition of caspase activation in TL1A-stimulated TF-1 cells [3]	IC50 of inhibition of NF-kB activation in TL1A-stimulated 293T-hDR3-NF-kB-RE-luci cells [4]	IC50 of inhibition of interferon-gamma secretion by TL1A-stimulated PBMCs [5]	Kd [6]	koff [6]	kon [6]	Kd [7]	koff [7]	kon [7]	Kd [8]	koff [8]	kon [8]	Kd [9]	koff [9]	kon [9]	Kd [12]	koff [12]	kon [12]	also measured
B1	3.13 nM	1.28 nM	3.46 nM	1.08 nM	13.6 nM	0.154 nM	0.0001 s⁻¹	652000 M⁻¹ s⁻¹	0.0482 nM	4.36e-05 s⁻¹	904000 M⁻¹ s⁻¹	0.0275 nM	4.51e-05 s⁻¹	1.64e+06 M⁻¹ s⁻¹	0.144 nM	0.000102 s⁻¹	706000 M⁻¹ s⁻¹	0.05 nM	6.7e-05 s⁻¹	1.34e+06 M⁻¹ s⁻¹	Kd [10]: 0.0775 nM; koff [10]: 5.92e-05 s⁻¹; kon [10]: 764000 M⁻¹ s⁻¹; Kd [11]: 0.434 nM; koff [11]: 0.000424 s⁻¹; kon [11]: 978000 M⁻¹ s⁻¹
B2	2.69 nM	1.28 nM				0.0374 nM	0.000501 s⁻¹	1.34e+07 M⁻¹ s⁻¹	37.2 nM	0.00255 s⁻¹	68600 M⁻¹ s⁻¹	0.0603 nM	0.000175 s⁻¹	2.9e+06 M⁻¹ s⁻¹							
B3	2.69 nM	1.35 nM				0.234 nM	0.00011 s⁻¹	470000 M⁻¹ s⁻¹	53.5 nM	0.00366 s⁻¹	68300 M⁻¹ s⁻¹	0.052 nM	6.93e-05 s⁻¹	1.32e+06 M⁻¹ s⁻¹							
B4			6.52 nM	2.81 nM	6.54 nM	0.355 nM	0.000169 s⁻¹	476000 M⁻¹ s⁻¹				0.0802 nM	9.01e-05 s⁻¹	1.12e+06 M⁻¹ s⁻¹	0.355 nM	0.000169 s⁻¹	476000 M⁻¹ s⁻¹	0.0802 nM	9.01e-05 s⁻¹	1.12e+06 M⁻¹ s⁻¹	binding result [13]: no binding; binding result [14]: no binding
B5	3.05 nM	1.13 nM				0.247 nM	0.000131 s⁻¹	532000 M⁻¹ s⁻¹				0.0489 nM	6.31e-05 s⁻¹	1.29e+06 M⁻¹ s⁻¹							binding result [13]: no binding

Source: patent EP4818205A1 (Beijing Wisdomab Biotechnology Co., Ltd, dated 2026)
